Measurements from patent US20260193335A1 (ZOETIS SERVICES, published 2026).

Molecular target: T1, Feline FcRn (complex of FcRn-α subunit and β-microglobulin, C-terminal His tag) (feline, UniProt A0ABI7ZNY9 23-296; Q5MGS7 21-118)
T1 construct: treated here as one molecule
Test: SPR Biacore, biotin-FcRn on SA chip, pH 6
Description: Feline FcRn was isolated, prepared and mutant Fc IgGs were assayed against feline FcRn according to Strietzel et. al., discussed above. Standard PCR was used to amplify feline FcRn-α subunit and β-microglobulin. FcRn-α subunit and β-microglobulin were co-transfected into HEK 293 cells and the FcRn complex was purified by IMAC affinity purification via the c-terminal His tag. FcRn complex was biotin labeled through BirA enzymatic biotinylatoin reaction. KD's were measured by Biacore T200 (GE Healthcare, Pittsburgh, PA, USA) or Biacore 8K (Cytiva, Marlborough, MA, USA) using a SA sensor chip.
FcRn was captured on the surface of the sensor using a modified SA capture method. 10 mM MES; 150 mM NaCl; 0.005% Tween20; 0.5 mg/mL BSA; pH6 was used as capture, method running buffer and titrations. 1×HBS-P, 0.5 mg/mL BSA; pH7.4 was also used for method running buffer and titrations. Fc mutant IgGs were flowed over receptor surfaces and affinity was determined using T200 evaluation software or Biacore Insight Evaluation software. Blank runs containing buffer only were subtracted out from all runs. Flow cells were regenerated using 50 mM Tris pH8 or pH9. Runs were performed at 15° C.

Row | Binder | Kd [nM]
1 | mAb3 (felinized anti-NGF antibody ZTS-768) S428A, feline IgG1a (antibody, also called mAb3 ID No. 89) heavy: DVQLVESGGDLVKPGGSLRLTCVASGFTYSNYWMHWVRQAPGKGLQWVARIDPYGGGTKHNEKFKRRFTISRDNAKNTLYLQMNSLKTEDTATYYCVRSGYDYYFDVWGQGTLVTVSSASTTAPSVFPLAPSCGTTSGATVALACLVLGYFPEPVTVSWNSGALTSGVHTFPAVLQASGLYSLSSMVTVPSSRWLSDTFTCNVAHPPSNTKVDKTVRKTDHPPGPKPCDCPKCPPPEMLGGPSIFIFPPKPKDTLSISRTPEVTCLVVDLGPDDSDVQITWFVDNTQVYTAKTSPREEQFNSTYRVVSVLPILHQDWLKGKEFKCKVNSKSLPSPIERTISKAKGQPHEPQVYVLPPAQEELSRNKVSVTCLIKSFHPPDIAVEWEITGQPEPENNYRTTPPQLDSDGTYFVYSKLSVDRSHWQRGNTYTCSVAHEALHSHHTQKSLTQSPGK light: EIQMTQSPSSLSASPGDRVTITCRASENIYSFLAWYQQKPGKVPKLLIYNANTLAEGVPSRFSGSGSGTDFTLTISSLEPEDAATYYCQHHFGTPFTFGSGTKLEIKRSDAQPSVFLFQPSLDELHTGSASIVCILNDFYPKEVNVKWKVDGVVQNKGIQESTTEQNSKDSTYSLSSTLTMSSTEYQSHEKFSCEVTHKSLASTLVKSFQRSECQRE | 22.3
2 | mAb3 (felinized anti-NGF antibody ZTS-768) S428C, feline IgG1a (antibody, also called mAb3 ID No. 90) heavy: DVQLVESGGDLVKPGGSLRLTCVASGFTYSNYWMHWVRQAPGKGLQWVARIDPYGGGTKHNEKFKRRFTISRDNAKNTLYLQMNSLKTEDTATYYCVRSGYDYYFDVWGQGTLVTVSSASTTAPSVFPLAPSCGTTSGATVALACLVLGYFPEPVTVSWNSGALTSGVHTFPAVLQASGLYSLSSMVTVPSSRWLSDTFTCNVAHPPSNTKVDKTVRKTDHPPGPKPCDCPKCPPPEMLGGPSIFIFPPKPKDTLSISRTPEVTCLVVDLGPDDSDVQITWFVDNTQVYTAKTSPREEQFNSTYRVVSVLPILHQDWLKGKEFKCKVNSKSLPSPIERTISKAKGQPHEPQVYVLPPAQEELSRNKVSVTCLIKSFHPPDIAVEWEITGQPEPENNYRTTPPQLDSDGTYFVYSKLSVDRSHWQRGNTYTCSVCHEALHSHHTQKSLTQSPGK light: EIQMTQSPSSLSASPGDRVTITCRASENIYSFLAWYQQKPGKVPKLLIYNANTLAEGVPSRFSGSGSGTDFTLTISSLEPEDAATYYCQHHFGTPFTFGSGTKLEIKRSDAQPSVFLFQPSLDELHTGSASIVCILNDFYPKEVNVKWKVDGVVQNKGIQESTTEQNSKDSTYSLSSTLTMSSTEYQSHEKFSCEVTHKSLASTLVKSFQRSECQRE | 26.2
3 | mAb3 (felinized anti-NGF antibody ZTS-768) S428D, feline IgG1a (antibody, also called mAb3 ID No. 91) heavy: DVQLVESGGDLVKPGGSLRLTCVASGFTYSNYWMHWVRQAPGKGLQWVARIDPYGGGTKHNEKFKRRFTISRDNAKNTLYLQMNSLKTEDTATYYCVRSGYDYYFDVWGQGTLVTVSSASTTAPSVFPLAPSCGTTSGATVALACLVLGYFPEPVTVSWNSGALTSGVHTFPAVLQASGLYSLSSMVTVPSSRWLSDTFTCNVAHPPSNTKVDKTVRKTDHPPGPKPCDCPKCPPPEMLGGPSIFIFPPKPKDTLSISRTPEVTCLVVDLGPDDSDVQITWFVDNTQVYTAKTSPREEQFNSTYRVVSVLPILHQDWLKGKEFKCKVNSKSLPSPIERTISKAKGQPHEPQVYVLPPAQEELSRNKVSVTCLIKSFHPPDIAVEWEITGQPEPENNYRTTPPQLDSDGTYFVYSKLSVDRSHWQRGNTYTCSVDHEALHSHHTQKSLTQSPGK light: EIQMTQSPSSLSASPGDRVTITCRASENIYSFLAWYQQKPGKVPKLLIYNANTLAEGVPSRFSGSGSGTDFTLTISSLEPEDAATYYCQHHFGTPFTFGSGTKLEIKRSDAQPSVFLFQPSLDELHTGSASIVCILNDFYPKEVNVKWKVDGVVQNKGIQESTTEQNSKDSTYSLSSTLTMSSTEYQSHEKFSCEVTHKSLASTLVKSFQRSECQRE | 56.8
4 | mAb3 (felinized anti-NGF antibody ZTS-768) S428E, feline IgG1a (antibody, also called mAb3 ID No. 92) heavy: DVQLVESGGDLVKPGGSLRLTCVASGFTYSNYWMHWVRQAPGKGLQWVARIDPYGGGTKHNEKFKRRFTISRDNAKNTLYLQMNSLKTEDTATYYCVRSGYDYYFDVWGQGTLVTVSSASTTAPSVFPLAPSCGTTSGATVALACLVLGYFPEPVTVSWNSGALTSGVHTFPAVLQASGLYSLSSMVTVPSSRWLSDTFTCNVAHPPSNTKVDKTVRKTDHPPGPKPCDCPKCPPPEMLGGPSIFIFPPKPKDTLSISRTPEVTCLVVDLGPDDSDVQITWFVDNTQVYTAKTSPREEQFNSTYRVVSVLPILHQDWLKGKEFKCKVNSKSLPSPIERTISKAKGQPHEPQVYVLPPAQEELSRNKVSVTCLIKSFHPPDIAVEWEITGQPEPENNYRTTPPQLDSDGTYFVYSKLSVDRSHWQRGNTYTCSVEHEALHSHHTQKSLTQSPGK light: EIQMTQSPSSLSASPGDRVTITCRASENIYSFLAWYQQKPGKVPKLLIYNANTLAEGVPSRFSGSGSGTDFTLTISSLEPEDAATYYCQHHFGTPFTFGSGTKLEIKRSDAQPSVFLFQPSLDELHTGSASIVCILNDFYPKEVNVKWKVDGVVQNKGIQESTTEQNSKDSTYSLSSTLTMSSTEYQSHEKFSCEVTHKSLASTLVKSFQRSECQRE | 57.4
5 | mAb3 (felinized anti-NGF antibody ZTS-768) S428F, feline IgG1a (antibody, also called mAb3 ID No. 93) heavy: DVQLVESGGDLVKPGGSLRLTCVASGFTYSNYWMHWVRQAPGKGLQWVARIDPYGGGTKHNEKFKRRFTISRDNAKNTLYLQMNSLKTEDTATYYCVRSGYDYYFDVWGQGTLVTVSSASTTAPSVFPLAPSCGTTSGATVALACLVLGYFPEPVTVSWNSGALTSGVHTFPAVLQASGLYSLSSMVTVPSSRWLSDTFTCNVAHPPSNTKVDKTVRKTDHPPGPKPCDCPKCPPPEMLGGPSIFIFPPKPKDTLSISRTPEVTCLVVDLGPDDSDVQITWFVDNTQVYTAKTSPREEQFNSTYRVVSVLPILHQDWLKGKEFKCKVNSKSLPSPIERTISKAKGQPHEPQVYVLPPAQEELSRNKVSVTCLIKSFHPPDIAVEWEITGQPEPENNYRTTPPQLDSDGTYFVYSKLSVDRSHWQRGNTYTCSVFHEALHSHHTQKSLTQSPGK light: EIQMTQSPSSLSASPGDRVTITCRASENIYSFLAWYQQKPGKVPKLLIYNANTLAEGVPSRFSGSGSGTDFTLTISSLEPEDAATYYCQHHFGTPFTFGSGTKLEIKRSDAQPSVFLFQPSLDELHTGSASIVCILNDFYPKEVNVKWKVDGVVQNKGIQESTTEQNSKDSTYSLSSTLTMSSTEYQSHEKFSCEVTHKSLASTLVKSFQRSECQRE | 6.75
6 | mAb3 (felinized anti-NGF antibody ZTS-768) S428G, feline IgG1a (antibody, also called mAb3 ID No. 94) heavy: DVQLVESGGDLVKPGGSLRLTCVASGFTYSNYWMHWVRQAPGKGLQWVARIDPYGGGTKHNEKFKRRFTISRDNAKNTLYLQMNSLKTEDTATYYCVRSGYDYYFDVWGQGTLVTVSSASTTAPSVFPLAPSCGTTSGATVALACLVLGYFPEPVTVSWNSGALTSGVHTFPAVLQASGLYSLSSMVTVPSSRWLSDTFTCNVAHPPSNTKVDKTVRKTDHPPGPKPCDCPKCPPPEMLGGPSIFIFPPKPKDTLSISRTPEVTCLVVDLGPDDSDVQITWFVDNTQVYTAKTSPREEQFNSTYRVVSVLPILHQDWLKGKEFKCKVNSKSLPSPIERTISKAKGQPHEPQVYVLPPAQEELSRNKVSVTCLIKSFHPPDIAVEWEITGQPEPENNYRTTPPQLDSDGTYFVYSKLSVDRSHWQRGNTYTCSVGHEALHSHHTQKSLTQSPGK light: EIQMTQSPSSLSASPGDRVTITCRASENIYSFLAWYQQKPGKVPKLLIYNANTLAEGVPSRFSGSGSGTDFTLTISSLEPEDAATYYCQHHFGTPFTFGSGTKLEIKRSDAQPSVFLFQPSLDELHTGSASIVCILNDFYPKEVNVKWKVDGVVQNKGIQESTTEQNSKDSTYSLSSTLTMSSTEYQSHEKFSCEVTHKSLASTLVKSFQRSECQRE | 87.7
7 | mAb3 (felinized anti-NGF antibody ZTS-768) S428H, feline IgG1a (antibody, also called mAb3 ID No. 95) heavy: DVQLVESGGDLVKPGGSLRLTCVASGFTYSNYWMHWVRQAPGKGLQWVARIDPYGGGTKHNEKFKRRFTISRDNAKNTLYLQMNSLKTEDTATYYCVRSGYDYYFDVWGQGTLVTVSSASTTAPSVFPLAPSCGTTSGATVALACLVLGYFPEPVTVSWNSGALTSGVHTFPAVLQASGLYSLSSMVTVPSSRWLSDTFTCNVAHPPSNTKVDKTVRKTDHPPGPKPCDCPKCPPPEMLGGPSIFIFPPKPKDTLSISRTPEVTCLVVDLGPDDSDVQITWFVDNTQVYTAKTSPREEQFNSTYRVVSVLPILHQDWLKGKEFKCKVNSKSLPSPIERTISKAKGQPHEPQVYVLPPAQEELSRNKVSVTCLIKSFHPPDIAVEWEITGQPEPENNYRTTPPQLDSDGTYFVYSKLSVDRSHWQRGNTYTCSVHHEALHSHHTQKSLTQSPGK light: EIQMTQSPSSLSASPGDRVTITCRASENIYSFLAWYQQKPGKVPKLLIYNANTLAEGVPSRFSGSGSGTDFTLTISSLEPEDAATYYCQHHFGTPFTFGSGTKLEIKRSDAQPSVFLFQPSLDELHTGSASIVCILNDFYPKEVNVKWKVDGVVQNKGIQESTTEQNSKDSTYSLSSTLTMSSTEYQSHEKFSCEVTHKSLASTLVKSFQRSECQRE | 53.3
8 | mAb3 (felinized anti-NGF antibody ZTS-768) S428I, feline IgG1a (antibody, also called mAb3 ID No. 96) heavy: DVQLVESGGDLVKPGGSLRLTCVASGFTYSNYWMHWVRQAPGKGLQWVARIDPYGGGTKHNEKFKRRFTISRDNAKNTLYLQMNSLKTEDTATYYCVRSGYDYYFDVWGQGTLVTVSSASTTAPSVFPLAPSCGTTSGATVALACLVLGYFPEPVTVSWNSGALTSGVHTFPAVLQASGLYSLSSMVTVPSSRWLSDTFTCNVAHPPSNTKVDKTVRKTDHPPGPKPCDCPKCPPPEMLGGPSIFIFPPKPKDTLSISRTPEVTCLVVDLGPDDSDVQITWFVDNTQVYTAKTSPREEQFNSTYRVVSVLPILHQDWLKGKEFKCKVNSKSLPSPIERTISKAKGQPHEPQVYVLPPAQEELSRNKVSVTCLIKSFHPPDIAVEWEITGQPEPENNYRTTPPQLDSDGTYFVYSKLSVDRSHWQRGNTYTCSVIHEALHSHHTQKSLTQSPGK light: EIQMTQSPSSLSASPGDRVTITCRASENIYSFLAWYQQKPGKVPKLLIYNANTLAEGVPSRFSGSGSGTDFTLTISSLEPEDAATYYCQHHFGTPFTFGSGTKLEIKRSDAQPSVFLFQPSLDELHTGSASIVCILNDFYPKEVNVKWKVDGVVQNKGIQESTTEQNSKDSTYSLSSTLTMSSTEYQSHEKFSCEVTHKSLASTLVKSFQRSECQRE | 22.2
